Legend:
[1] = target: full-length human Neurofibromin (His6-tagged, purified) (human) (UniProt P21359); experiment: SEC-MALS
[2] = target: full-length human Neurofibromin (His6-tagged, purified) (human) (UniProt P21359); experiment: SAXS and SANS
[3] = target: full-length human Neurofibromin (His6-tagged, purified) (human) (UniProt P21359); experiment: AUC
[4] = target: full-length human Neurofibromin (His6-tagged, purified) (human) (UniProt P21359); experiment: negative stain electron microscopy
[5] = target: full-length human Neurofibromin (His6-tagged, purified) (human) (UniProt P21359); experiment: SEC

stoichiometry N [1]: 2
stoichiometry N [2]: 2
Kd [3]: < 5 nM
stoichiometry N [3]: 2
stoichiometry N [4]: 2
stoichiometry N [5]: 2
Substance: full-length human Neurofibromin (His6-tagged, purified), P21359-2 1-2818

— publication doi:10.1101/757856
